Target: the molecule itself
Assay: SEC-MALS; SEC-MALLS at 4 °C; 20 µL of JIP1^SH3 at 5.6 mg mL^-1 injected at 0.5 mL min^-1 on Superdex 200 10/300 GL in 50 mM HEPES pH 7.1, 150 mM NaCl, 2 mM DTT

B1: JIP1^SH3 (JIP1 IDR residues 1–450 linked to the SH3 domain of JIP1, residues 489–553, via a (GS)3G linker) (domain or fragment)
chain: GHMMAERESGGLGGGAASPPAASPFLGLHIASPPNFRLTHDISLEEFEDEDLSEITDECGISLQCKDTLSLRPPRAGLLSAGGGGAGSRLQAEMLQMDLIDATGDTPGAEDDEEDDDEERAARRPGAGPPKAESGQEPASRGQGQSQGQSQGPGSGDTYRPKRPTTLNLFPQVPRSQDTLNNNSLGKKHSWQDRVSRSSSPLKTGEQTPPHEHICLSDELPPQSGPAPTTDRGTSTDSPCRRSTATQMAPPGGPPAAPPGGRGHSHRDRIHYQADVRLEATEEIYLTPVQRPPDAAEPTSAFLPPTESRMSVSSDPDPAAYPSTAGRPHPSISEEEEGFDCLSSPERAEPPGGGWRGSLGEPPPPPRASLSSDTSALSYDSVKYTLVVDEHAQLELVSLRPCFGDYSDESDSATVYDNCASVSSPYESAIGEEYEEAPRPQPPACLSEDSTPDGSGSGSGQEQTHRAIFRFVPRHEDELELEVDDPLLVELQAEDYWYEAYNMRTGARGVFPAYYAIEVTKEPEH
notes: extension left at the N-terminus after TEV cleavage; (GS)3G linker that replaces residues 451-488 of JIP1; Residues 451-488 of JIP1 replaced by the glycine-serine linker because they are prone to aggregation; also called JIP1^SH3 dimer; not shown: thioredoxin, N-terminal, cleaved; His6, N-terminal, cleaved
  stoichiometry N: 2

Reference: publication PMC12463012, “Sequence‐ and Docking‐Site‐Dependent Contributions to Multi‐Site Phosphorylation of an Intrinsically Disordered MAPK Substrate” (Advanced Science, 2025)
